In article PMC5674874 (The Journal of Cell Biology, 2017):
Where a chain is given by its changes, count along the chain named.

How the values were obtained:
Stu2-2D-Flag = target: T1, Stu2-2D-Flag (S. cerevisiae, UniProt P46675 1-888, S813D | S815D); assay: SEC
T1 sequence (looked up): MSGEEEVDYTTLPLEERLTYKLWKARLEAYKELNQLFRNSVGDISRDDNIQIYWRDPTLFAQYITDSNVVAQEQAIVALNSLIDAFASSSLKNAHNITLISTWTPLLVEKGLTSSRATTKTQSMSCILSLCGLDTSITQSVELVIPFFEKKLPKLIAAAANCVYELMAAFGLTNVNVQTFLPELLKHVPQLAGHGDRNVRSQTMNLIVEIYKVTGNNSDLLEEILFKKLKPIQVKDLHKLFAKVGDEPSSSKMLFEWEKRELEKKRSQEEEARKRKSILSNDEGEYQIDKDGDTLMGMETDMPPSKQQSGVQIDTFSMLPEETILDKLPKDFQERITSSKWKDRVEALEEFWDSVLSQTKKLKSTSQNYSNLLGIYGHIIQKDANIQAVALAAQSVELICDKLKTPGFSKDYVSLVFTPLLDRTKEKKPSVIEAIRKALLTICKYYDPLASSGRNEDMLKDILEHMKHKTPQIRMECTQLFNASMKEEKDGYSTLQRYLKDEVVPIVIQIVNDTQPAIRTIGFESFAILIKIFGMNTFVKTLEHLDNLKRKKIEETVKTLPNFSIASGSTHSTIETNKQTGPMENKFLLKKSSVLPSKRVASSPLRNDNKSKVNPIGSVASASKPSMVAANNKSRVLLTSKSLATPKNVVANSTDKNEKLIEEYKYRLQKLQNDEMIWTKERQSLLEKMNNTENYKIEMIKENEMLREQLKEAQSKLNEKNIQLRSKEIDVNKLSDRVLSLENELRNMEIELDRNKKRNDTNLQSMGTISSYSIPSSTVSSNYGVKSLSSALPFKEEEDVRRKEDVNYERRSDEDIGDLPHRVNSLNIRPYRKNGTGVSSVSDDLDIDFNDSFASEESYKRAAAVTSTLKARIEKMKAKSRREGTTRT

Stu2-WT-Flag = target: T2, Stu2-WT-Flag (S. cerevisiae, UniProt P46675 1-888); assay: SEC
T2 sequence (looked up): T1 sequence (looked up) with D813S, D815S

binding result (Stu2-2D-Flag): binds
binding result (Stu2-WT-Flag): binds
B1: Bik1 (recombinant, from StrepII-TEV-Bik1) (natural protein, S. cerevisiae, UniProt P11709 1-440, looked up)
chain: MDRYQRKIGCFIQIPNLGRGQLKYVGPVDTKAGMFAGVDLLANIGKNDGSFMGKKYFQTEYPQSGLFIQLQKVASLIEKASISQTSRRTTMEPLSIPKNRSIVRLTNQFSPMDDPKSPTPMRSFRITSRHSGNQQSMDQEASDHHQQQEFGYDNREDRMEVDSILSSDRKANHNTTSDWKPDNGHMNDLNSSEVTIELREAQLTIEKLQRKQLHYKRLLDDQRMVLEEVQPTFDRYEATIQEREKEIDHLKQQLELERRQQAKQKQFFDAENEQLLAVVSQLHEEIKENEERNLSHNQPTGANEDVELLKKQLEQLRNIEDQFELHKTKWAKEREQLKMHNDSLSKEYQNLSKELFLTKPQDSSSEEVASLTKKLEEANEKIKQLEQAQAQTAVESLPIFDPPAPVDTTAGRQQWCEHCDTMGHNTAECPHHNPDNQQFF
